Experimental data from patent publication US20190359710A1 (FRIEDRICH ALEXANDER UNIVERSIT T ERLANGEN N RNBERG, published 2019).

B1: single chain triplebody SPM-2, hu(33-ds16-ds123RK) (other)
chain: EVQLVESGGGLIQPGGSLRLSCAASGFPLTSYGVSWVRQPPGKGLEWLGVIWGDGSTNYHSALISRFTISRDNSKNTLYLQMNSLRAEDTAVYYCARDTYYPYYAMDYWGQGTTVTVSSGGGGSGGGGSGGGGSDIQMTQSPSSLSASVGDRVTITCKASQDVSTAVAWYQQKPGKAPKLLIYSASYRYTGVPSRFSGSGSGTDFTLTISSLQPEDFATYYCQQHYSTPLTFGQGTKLEIKRGGGGSGGGGSGGGGSGGGGSDIVLTQSPSSLSASVGDRVTITCKASQSVDFDGDSFMNWYQQKPGKAPKLLIYTTSNLESGVPSRFSASGSGTDFTLTISSLQPEDFATYYCQQSNEDPYTFGCGTKVEIKRGGGGSGGGGSGGGGSGGGGSEVQLVESGGGDVQPGGSLRLSCAFSGFSLRTSGMGVGWIRQAPGKCLEWVAHIWWDDDKRYNPSVKGRFTISKDTSSNTVYLQMNSLRAEDTAVYYCAQINPAWFAYWGQGTLVTVSSGGGGSGGGGSGGGGSGGGGSEVQLVESGGGLVQPGGSLRLSCAASGFTFTDYYMSWVRQAPGKCLEWLALIRSKADGYTTEYSASVKGRFTISRDDSKNSLYLQMNSLKTEDTAVYYCARDAAYYSYYSPEGAMDYWGQGTSVTVSSGGGGSGGGGSGGGGSDIQMTQSPSSLSASVGDRVTITCKASQNVDSAVAWYQQKPGKAPKALIYSASYRYSGVPSRFSGSGSGTDFTLTISSLQPEDFATYYCQQYYSTPWTFGCGTKVEIKRGGGGSHHHHHH
notes: Trispecific single-chain triplebody made of three scFvs in tandem, produced in HEK293 F cells; also called 33-ds16-ds123 (SPM-2)
B2: triplebody hu[33-ds16-123] (other)
chain: EVQLVESGGGLIQPGGSLRLSCAASGFPLTSYGVSWVRQPPGKGLEWLGVIWGDGSTNYHSALISRFTISRDNSKNTLYLQMNSLRAEDTAVYYCARDTYYPYYAMDYWGQGTTVTVSSGGGGSGGGGSGGGGSDIQMTQSPSSLSASVGDRVTITCKASQDVSTAVAWYQQKPGKAPKLLIYSASYRYTGVPSRFSGSGSGTDFTLTISSLQPEDFATYYCQQHYSTPLTFGQGTKLEIKRGGGGSGGGGSGGGGSGGGGSDIVLTQSPSSLSASVGDRVTITCKASQSVDFDGDSFMNWYQQKPGKAPKLLIYTTSNLESGVPSRFSASGSGTDFTLTISSLQPEDFATYYCQQSNEDPYTFGCGTKVEIKRGGGGSGGGGSGGGGSGGGGSEVQLVESGGGDVQPGGSLRLSCAFSGFSLRTSGMGVGWIRQAPGKCLEWVAHIWWDDDKRYNPSVKGRFTISKDTSSNTVYLQMNSLRAEDTAVYYCAQINPAWFAYWGQGTLVTVSSGGGGSGGGGSGGGGSGGGGSEVQLVESGGGLVQPGGSLRLSCAASGFTFTDYYMSWVRQAPGKGLEWLALIRSKADGYTTEYSASVKGRFTISRDDSKNSLYLQMNSLKTEDTAVYYCARDAAYYSYYSPEGAMDYWGQGTSVTVSSGGGGSGGGGSGGGGSDIQMTQSPSSLSASVGDRVTITCKASQNVDSAVAWYQQKPGKAPKALIYSASYRYSGVPSRFSGSGSGTDFTLTISSLQPEDFATYYCQQYYSTPWTFGQGTKVEIKR
B3: candidate triplebody hu[33-ds16-ds123RK] before polishing of the sequence (other, not shown: small tags and cut ends)
chain: EVQLVESGGGLIQPGGSLRLSCAASGFPLTSYGVSWVRQPPGKGLEWLGVIWGDGSTNYHSALISRFTISRDNSKNTLYLQMNSLRAEDTAVYYCARDTYYPYYAMDYWGQGTTVTVSSGGGGSGGGGSGGGGSDIQMTQSPSSLSASVGDRVTITCKASQDVSTAVAWYQQKPGKAPKLLIYSASYRYTGVPSRFSGSGSGTDFTLTISSLQPEDFATYYCQQHYSTPLTFGQGTKLEIKRGGGGSGGGGSGGGGSGGGGSDIVLTQSPSSLSASVGDRVTITCKASQSVDFDGDSFMNWYQQKPGKAPKLLIYTTSNLESGVPSRFSASGSGTDFTLTISSLQPEDFATYYCQQSNEDPYTFGCGTKVEIKRGGGGSGGGGSGGGGSGGGGSEVQLVESGGGDVQPGGSLRLSCAFSGFSLRTSGMGVGWIRQAPGKCLEWVAHIWWDDDKRYNPSVKGRFTISKDTSSNTVYLQMNSLRAEDTAVYYCAQINPAWFAYWGQGTLVTVSSGGGGSGGGGSGGGGSGGGGSEVQLVESGGGLVQPGGSLRLSCAASGFTFTDYYMSWVRQAPGKCLEWLALIRSKADGYTTEYSASVKGRFTISRDDSKNSLYLQMNSLKTEDTAVYYCARDAAYYSYYSPEGAMDYWGQGTSVTVSSGGGGSGGGGSGGGGSDIQMTQSPSSLSASVGDRVTITCKASQNVDSAVAWYQQKPGKAPKALIYSASYRYSGVPSRFSGSGSGTDFTLTISSLQPEDFATYYCQQYYSTPWTFGCGTKVEIKR
notes: the list of removed pieces may not be complete; also called variant (f)
B4: humanized CD16-specific scFv variant 1/3 (Vk1 / VH3 frameworks, LH order, (Gly4Ser)4x linker) (scFv)
chain: DIVLTQSPSSLSASVGDRVTITCKASQSVDFDGDSFMNWYQQKPGKAPKLLIYTTSNLESGVPSRFSASGSGTDFTLTISSLQPEDFATYYCQQSNEDPYTFGQGTKVEIKRGGGGSGGGGSGGGGSGGGGSEVQLVESGGGDVQPGGSLRLSCAFSGFSLRTSGMGVGWIRQAPGKGLEWVAHIWWDDDKRYNPSVKGRFTISKDTSSNTVYLQMNSLRAEDTAVYYCAQINPAWFAYWGQGTLVTVSS

Legend:
human CD16 [1] = molecular target: T1, human CD16 (human, UniProt P08637 17-254); assay: affinity for CD16, method not named in the table (antigen on mammalian cells by the text)
T1 construct: whole, on cells; also called hu CD16; CHO16-10 CD16+

[2] = molecular target: T2, human CD123 (alpha chain of the interleukin-3 receptor) (human, UniProt P26951 19-378); assay: affinity for CD123, method not named in the table (antigen on mammalian cells by the text)
T2 construct: also called 239 CD123+; HEK293.123

human CD33 [3] = molecular target: T3, human CD33 (human, UniProt P20138 18-364); assay: affinity for CD33, method not named in the table (antigen on mammalian cells by the text)
T3 construct: whole, on cells; also called U937 CD33+

human CD16 [4] = molecular target: T1, human CD16; assay: calibrated flow cytometry on CHO16-10 cells (CD16 single-positive)
Experimental: (§1) The remaining triplebodies (a), (b), (d) and (f) from the above list were further analyzed. Equilibrium binding constants (KD) of each of the component scFvs carried in these triplebodies were determined by calibrated flow cytometry (Table 5). Thermo-stability in human serum was evaluated by incubation in human serum at 37° C. in vitro, and the binding ability to CD33, CD16 and CD123 on antigen single-positive mammalian cells was measured by FACS-analysis. Residual binding capacity (in % of the starting value) was evaluated after incubation for various lengths of time (Table 5).
(§2) In the top 2 rows the variant humanized according to AHo was used, in the bottom 2 rows the variant humanized according to RK was used. U937 cells are single-positive for CD33; CHO16-10 cells are single-positive (stably transfected) variants for hu CD16; […] are a stably transfected variant of HEK293, single-positive for CD123; MOLM13 cells are a stable, human AML-derived cell line double-positive for CD123 and CD33. n = number of independent experiments performed. Numbers in the table are arithmetic means from n separate measurements ± the Standard Error of the Mean (SEM).

human CD33 [5] = molecular target: T3, human CD33; assay: calibrated flow cytometry on U937 cells (CD33 single-positive)
Experimental: as §1, §2

[6] = molecular target: T2, human CD123 (alpha chain of the …); assay: calibrated flow cytometry on CD123-transfected HEK293 cells
Experimental: as §1, §2

human CD16 [7] = molecular target: T1, human CD16; assay: cytofluorimetry on CHO cells stably transfected with CD16

T1 sequence (P08637 17-254): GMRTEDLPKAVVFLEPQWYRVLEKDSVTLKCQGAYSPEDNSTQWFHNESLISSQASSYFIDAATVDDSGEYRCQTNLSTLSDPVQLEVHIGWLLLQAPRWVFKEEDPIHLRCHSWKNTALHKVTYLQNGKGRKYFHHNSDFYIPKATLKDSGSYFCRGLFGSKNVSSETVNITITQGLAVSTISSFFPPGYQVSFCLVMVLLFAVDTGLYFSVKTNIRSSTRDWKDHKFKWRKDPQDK
T3 sequence (P20138 18-364): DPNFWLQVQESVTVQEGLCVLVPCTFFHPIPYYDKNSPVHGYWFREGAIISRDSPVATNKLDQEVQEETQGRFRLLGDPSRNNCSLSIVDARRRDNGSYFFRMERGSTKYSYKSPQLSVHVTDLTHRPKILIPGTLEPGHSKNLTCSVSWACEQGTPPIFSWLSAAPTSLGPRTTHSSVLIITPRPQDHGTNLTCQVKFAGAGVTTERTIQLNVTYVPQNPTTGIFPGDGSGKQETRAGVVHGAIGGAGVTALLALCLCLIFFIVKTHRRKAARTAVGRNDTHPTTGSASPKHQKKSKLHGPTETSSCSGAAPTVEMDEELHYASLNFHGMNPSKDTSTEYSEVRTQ
T2 sequence (P26951 19-378 limits assumed): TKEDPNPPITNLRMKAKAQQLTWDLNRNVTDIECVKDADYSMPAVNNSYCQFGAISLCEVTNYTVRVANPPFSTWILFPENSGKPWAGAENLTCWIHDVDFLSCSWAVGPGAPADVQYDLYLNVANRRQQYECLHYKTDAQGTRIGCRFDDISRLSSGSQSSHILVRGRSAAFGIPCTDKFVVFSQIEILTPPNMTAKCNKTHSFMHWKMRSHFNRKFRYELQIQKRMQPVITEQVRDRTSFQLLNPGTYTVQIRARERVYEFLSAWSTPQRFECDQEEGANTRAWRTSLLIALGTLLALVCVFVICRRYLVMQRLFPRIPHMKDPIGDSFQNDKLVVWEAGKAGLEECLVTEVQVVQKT

| Binder | Kd (human CD16 [1]) [nM] | Kd [2] [nM] | Kd (human CD33 [3]) [nM] | Kd (human CD16 [4]) [nM] | Kd (human CD33 [5]) [nM] | Kd [6] [nM] | Kd (human CD16 [7]) [nM] |
| --- | --- | --- | --- | --- | --- | --- | --- |
| B1 | 35 | 32 | 23 | – | – | – | – |
| B2 | 13 | 13 | 53 | 11 | 49 | 11 | – |
| B3 | – | – | – | 18 | 31 | 9 | – |
| B4 | – | – | – | – | – | – | 12.7 |
